Results on 46 substances are retold here after patent publication US20230038638A1, “COMPLEMENT FACTOR I-RELATED COMPOSITIONS AND METHODS” (published 2023).

Changes are numbered by the printed parent chain. A value given as a limit tells only on which side of the number the result lay.

The target of assay [1] is T1, human C4b (human) (UniProt P0C0L4).
T1 sequence: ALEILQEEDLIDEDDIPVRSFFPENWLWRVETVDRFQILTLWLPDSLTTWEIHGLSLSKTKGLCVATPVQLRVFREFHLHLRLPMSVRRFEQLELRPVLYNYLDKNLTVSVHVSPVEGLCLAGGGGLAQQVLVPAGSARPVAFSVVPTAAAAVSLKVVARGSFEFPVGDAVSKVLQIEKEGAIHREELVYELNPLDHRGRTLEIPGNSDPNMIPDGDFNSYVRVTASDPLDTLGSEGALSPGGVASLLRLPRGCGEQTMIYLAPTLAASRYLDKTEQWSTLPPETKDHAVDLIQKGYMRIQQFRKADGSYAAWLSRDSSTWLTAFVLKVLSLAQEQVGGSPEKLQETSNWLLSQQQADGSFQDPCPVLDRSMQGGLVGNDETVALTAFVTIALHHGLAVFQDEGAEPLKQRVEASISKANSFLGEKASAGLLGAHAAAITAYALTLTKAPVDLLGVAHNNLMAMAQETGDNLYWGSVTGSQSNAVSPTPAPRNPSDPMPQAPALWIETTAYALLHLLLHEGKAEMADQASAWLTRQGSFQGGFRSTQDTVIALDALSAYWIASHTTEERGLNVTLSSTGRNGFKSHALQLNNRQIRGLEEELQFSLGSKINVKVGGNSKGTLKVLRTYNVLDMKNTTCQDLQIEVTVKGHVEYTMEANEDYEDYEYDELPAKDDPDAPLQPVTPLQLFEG

Assay [2] has as its target soluble human C3b (human) (UniProt P01024).
Assay [3] concerns the target T1, human C4b (human). This is another data set of the same source.
For assay [4], the target named is T2, human C4b (human) (UniProt P0C0L5).
T2 sequence: T1 sequence with A151T, D317G, P364L, C365S, L368I, D369H, N420S, V451A, L454R, S530A

For assay [5], the target named is soluble human C3b (human) (UniProt P01024). This is another data set of the same source.

Regarding CFI-HSA variant A405G (enzyme), the C4c EC50 (nM) with human C4b (human) [1] came out at 158 nM. The iC3b EC50 in assay [2] stood at 21.7 nM.
CFI-HSA variant D425H (enzyme) yielded a C4c EC50 in the assay with human C4b (human) [1] of 123 nM. Moreover, the iC3b EC50 in assay [2] is 10.7 nM.
Turning to CFI-HSA variant D425I (enzyme), the C4c EC50 in the assay with human C4b (human) [1] came to 112 nM. Further, the iC3b EC50 in assay [2] was found to be 13 nM.
On to CFI-HSA variant D425P (enzyme), for which the C4c EC50 with human C4b (human) [1] stood at 640 nM. Further, the iC3b EC50 in assay [2] came out at 13.6 nM.
On to “CFI-HSA variant D425R; Y408L; N531G; E457G; E461Q; R462K; F464Y; E530Y (enzyme)”, for which the C4c EC50 (nM) with human C4b (human) [1] is 12.3 nM. This substance also gave an iC3b EC50 in assay [2] of 4.3 nM.
Substance CFI-HSA variant D425T (enzyme) had a C4c EC50 with human C4b (human) [1] of 227 nM. Moreover, in assay [2], the iC3b EC50 came to 11.5 nM.
Taken in the same sequence, the figures for CFI-HSA variant D425W (enzyme) were 87.6 nM and 14.2 nM.
Taken in the same sequence, the figures for CFI-HSA variant D425Y (enzyme) were 112 nM and 14.3 nM.
In the assay with human C4b (human) [1], CFI-HSA variant D459G (enzyme) returned a C4c EC50 (nM) of 348 nM. The same substance returned an iC3b EC50 in assay [2] of 24.6 nM.
Substance CFI-HSA variant D549A (enzyme) gave a C4c EC50 (nM) with human C4b (human) [1] of more than 1000 nM. The substance also came in with an iC3b EC50 in assay [2] of 32.2 nM.
Taken in the same sequence, the figures for CFI-HSA variant D549N (enzyme) were 168 nM and 21.9 nM.
In the assay with human C4b (human) [1], CFI-HSA variant D549P (enzyme) came in with a C4c EC50 (nM) of more than 1000 nM. In assay [2], the iC3b EC50 is 41.7 nM.
The substance CFI-HSA variant E401G (enzyme) registered a C4c EC50 (nM) with human C4b (human) [1] of 126 nM. In addition, in assay [2], the iC3b EC50 amounted to 8.9 nM.
Turning to “CFI-HSA variant E457G; D425R; E530Y (enzyme)”, the C4c EC50 (nM) in the assay with human C4b (human) [1] was determined as 234 nM. In assay [2], this substance returned an iC3b EC50 of 3.6 nM.
For the substance “CFI-HSA variant E457G; E461Q; N531G; GGSSGG (SEQ ID NO: 6); CR1 (ccp15-17) (from UniProt P17927) (enzyme)”, in the assay with human C4b (human) [1], the C4c EC50 (nM) turned out to be 50.3 nM. The substance also displayed an iC3b EC50 in assay [2] of 33 nM.
Taken in the same sequence, the figures for “CFI-HSA variant E457G; E461Q; R557A (enzyme)” were 61.8 nM and 36.6 nM.
Taken in the same sequence, the figures for “CFI-HSA variant E457G; E461Q; R557K (enzyme)” were 52.6 nM and 10.8 nM.
In the case of CFI-HSA variant E457G; N531G (enzyme), in the assay with human C4b (human) [1], the C4c EC50 was determined as 11.2 nM. In addition, the iC3b EC50 in assay [2] is 6.5 nM.
“CFI-HSA variant E457G; N531G; D425R; E530Y (enzyme)”: in the assay with human C4b (human) [1], the C4c EC50 (nM) stood at 16.4 nM. For the same substance, the iC3b EC50 in assay [2] was 4.4 nM.
Turning to “CFI-HSA variant E457G; N531G; E461Q; R462K; F464Y; E530Y (enzyme)”, the C4c EC50 (nM) with human C4b (human) [1] worked out at 7.8 nM. The iC3b EC50 in assay [2] was 3.5 nM.
Turning to “CFI-HSA variant E457G; N531G; E461Q; R462K; F464Y; GGSSGG (SEQ ID NO: 6); CR1 (ccp15-17) (from UniProt P17927) (enzyme)”, in the assay with human C4b (human) [1], the C4c EC50 (nM) came out at 43.1 nM. In addition, the iC3b EC50 in assay [2] is 32.7 nM.
In the assay with human C4b (human) [1], “CFI-HSA variant E457G; N531G; E530Y (enzyme)” registered a C4c EC50 (nM) of 13 nM. The iC3b EC50 in assay [2] came out at 5 nM.
In the assay with human C4b (human) [1], “CFI-HSA variant E457G; N531G; P535G; WT; GGSSGG (SEQ ID NO: 6); CR1(ccp15-17) (enzyme)” came in with a C4c EC50 of 44.4 nM. Moreover, the iC3b EC50 in assay [2] came out at 14.3 nM.
“CFI-HSA variant E457G; N531G; WT; GGSSGG (SEQ ID NO: 6); CR1(ccp15-17) (enzyme)” showed a C4c EC50 with human C4b (human) [1] of 29.1 nM. In assay [2], this substance came in with an iC3b EC50 of 28.1 nM.
In the assay with human C4b (human) [1], “CFI-HSA variant E457G; WT; GGSSGG (SEQ ID NO: 6); CR1(ccp15-17) (enzyme)” returned a C4c EC50 of 42.3 nM. The substance further had an iC3b EC50 in assay [2] of 21.6 nM.
Taken in the same sequence, the figures for CFI-HSA variant F464P (enzyme) were more than 1000 nM and more than 500 nM.
Substance CFI-HSA variant H370G (enzyme) yielded a C4c EC50 (nM) with human C4b (human) [1] of more than 1000 nM. Moreover, in assay [2], the iC3b EC50 is 80.8 nM.
Take “CFI-HSA variant K504D; Y408L; N531G (enzyme)”: the C4c EC50 with human C4b (human) [1] is 242 nM. The substance also registered an iC3b EC50 in assay [2] of 20.9 nM.
In the assay with human C4b (human) [1], “CFI-HSA variant K504E; Y408L; N531G (enzyme)” gave a C4c EC50 of 120 nM. For the same substance, the iC3b EC50 in assay [2] stood at 19.4 nM.
Taken in the same sequence, the figures for CFI-HSA variant K534H (enzyme) were 104 nM and 15.7 nM.
Taken in the same sequence, the figures for CFI-HSA variant L307A (enzyme) were 93.4 nM and 17.1 nM.
CFI-HSA variant L307S (enzyme) came in with a C4c EC50 with human C4b (human) [1] of 54.1 nM. In assay [2], this substance came in with an iC3b EC50 of 18.4 nM.
Turning to CFI-HSA variant N404G (enzyme), the C4b Screen Ref Fold (fold of reference) with human C4b (human) [3] was determined as 0.53. The C4b Screen Ref Fold (fold vs CFI-HSA wild type) with human C4b (human) [4] amounted to 0.31. Also, in assay [5], the iC3b Screen Ref Fold (fold of reference) is 0.94 and the iC3b Screen Ref Fold (fold vs CFI-HSA wild type) came to 0.68. In addition, the C4c EC50 with human C4b (human) [1] is 310 nM.
As to “CFI-HSA variant N531G; E457G; E461Q; R462K (enzyme)”, the C4c EC50 in the assay with human C4b (human) [1] is 18.4 nM. Besides, in assay [2], the iC3b EC50 was found to be 5.9 nM.
In the case of “CFI-HSA variant N531G; E457G; E461Q; R557A (enzyme)”, the C4c EC50 (nM) with human C4b (human) [1] is 25 nM. This substance also registered an iC3b EC50 in assay [2] of 19.1 nM.
The substance “CFI-HSA variant N531G; E457G; E461Q; R557K (enzyme)” yielded a C4c EC50 (nM) with human C4b (human) [1] of 23.2 nM. The iC3b EC50 in assay [2] stood at 8.3 nM.
In the assay with human C4b (human) [1], “CFI-HSA variant N531G; E457G; E461Q; ΔC-term (Δ558-PFISQYNV (SEQ ID NO: 14)-565) (enzyme)” displayed a C4c EC50 (nM) of 51.1 nM. The same substance registered an iC3b EC50 in assay [2] of 97.1 nM.
In the case of “CFI-HSA variant N531G; E457G; F464Y (enzyme)”, the C4c EC50 with human C4b (human) [1] was found to be 16.4 nM. The iC3b EC50 in assay [2] worked out at 7 nM.
In the case of CFI-HSA variant P384A (enzyme), the C4b Screen Ref Fold (fold of reference) with human C4b (human) [3] amounted to 0.29. The C4b Screen Ref Fold (fold vs CFI-HSA wild type) with human C4b (human) [4] was 0.07. Moreover, in assay [5], the iC3b Screen Ref Fold (fold of reference) stood at 0.03 and the iC3b Screen Ref Fold (fold vs CFI-HSA wild type) worked out at 0.03. The C4c EC50 with human C4b (human) [1] is more than 1000 nM.
In the assay with human C4b (human) [3], “CFI-HSA variant Y408F; E457G; E461Q; N531G (enzyme)” yielded a C4b Screen Ref Fold (fold of CFI-HSA wild type) of 4.63. Further, the iC3b Screen Ref Fold (fold of CFI-HSA wild type) in assay [5] was found to be 1.42. Also, in the assay with human C4b (human) [1], the C4c EC50 (nM) was 51 nM.
On to “CFI-HSA variant Y408F; E457G; E461Q; R462K; F464Y; N531G (enzyme)”, for which the C4b Screen Ref Fold (fold of CFI-HSA wild type) with human C4b (human) [3] amounted to 4.57. In addition, the iC3b Screen Ref Fold (fold of CFI-HSA wild type) in assay [5] came to 1.87. For the same substance, the C4c EC50 (nM) with human C4b (human) [1] amounted to 13.2 nM.
“CFI-HSA variant Y408F; E457G; E461Q; R462K; N531G (enzyme)”: the C4b Screen Ref Fold (fold of CFI-HSA wild type) with human C4b (human) [3] worked out at 4.58. In addition, the iC3b Screen Ref Fold (fold of CFI-HSA wild type) in assay [5] amounted to 1.9. Also, the C4c EC50 (nM) with human C4b (human) [1] was found to be 14.4 nM.
Taken in the same sequence, the figures for “CFI-HSA variant Y408L; E416A; E457G; E461Q; R462K; N531G (enzyme)” were 4.04, 1.63 and 17.8 nM.
The substance “CFI-HSA variant Y408L; E457G; E461Q; R462K; E530F; N531G; P558S (enzyme)” displayed a C4b Screen Ref Fold (fold of CFI-HSA wild type) with human C4b (human) [3] of 3.96. In addition, the iC3b Screen Ref Fold (fold of CFI-HSA wild type) in assay [5] was 1.81. Also, in the assay with human C4b (human) [1], the C4c EC50 (nM) is 148 nM.
Taken in the same sequence, the figures for “CFI-HSA variant Y408L; E457G; E461Q; R462K; E530Y; N531G; P558S (enzyme)” were 4.18, 2.06 and 27.3 nM.
In the assay with human C4b (human) [3], “CFI-HSA variant Y408L; E457G; E461Q; R462K; K504H; N531G (enzyme)” displayed a C4b Screen Ref Fold (fold of CFI-HSA wild type) of 3.83. Moreover, the iC3b Screen Ref Fold (fold of CFI-HSA wild type) in assay [5] was 0.84. This substance displayed a C4c EC50 (nM) in the assay with human C4b (human) [1] of 27.5 nM.
